Target: gB-Ecto.H516P (HSV-1 glycoprotein B ectodomain with H516P and an appended foldon; postfusion) (HSV-1 KOS strain) (UniProt P06437)
Test: cryo-EM structure

Substance: gB-Ecto.H516P (HSV-1 glycoprotein B ectodomain with H516P and an appended foldon; postfusion) (from UniProt P06437 31-728) (domain or fragment)
- stoichiometry N: 3
